Experimental data published in patent publication US7258861B2, “TNF-derived peptides for use in treating oedema” (Innogenetics N.V., priority 2001, dated 2007).
Positions of bridges follow the written chain, without caps; N, C: chain ends. No end group written: not given here. *: point of attachment. Biotin = O=C1N[C@H]2[C@H](CS[C@H]2CCCCC(=O)*)N1

B1: mutTNF: E.coli-derived recombinant (T104A-E106A-E109A) triple TNF mutant (protein, UniProt P06804 1-235, looked up, variant T104A E106A E109A)
chain: MSTESMIRDVELAEEALPQKMGGFQNSRRCLCLSLFSFLLVAGATTLFCLLNFGVIGPQRDEKFPNGLPLISSMAQTLTLRSSSQNSSDKPVAHVVANHQVEEQLEWLSQRANALLANGMDLKDNQLVVPADGLYLVYSQVLFKGQGCPDYVLLTHTVSRFAISYQEKVNLLSAVKSPCPKDAPAGAALKPWYEPIYLGGVFQLEKGDQLSAEVNLPKYLDFAESGQVYFGVIAL

How the values were obtained:
[1] = system: lung microvascular endothelial cells; experiment: Whole-cell patch clamp, membrane conductance in lung microvascular endothelial cells; format: cell-based, mouse
Excerpt: (§1) Animals, cells and reagents. Male CBA/J or C57BL/6 mice, as well as male TNFR ½^0/0 C57BL/6 mice deficient in TNF receptors (Bruce et al., 1996) provided by H. Bluethmann, F. Hoffmann-La Roche, Basel, Switzerland, were used at the age of 8–10 weeks. Their care was in accordance with institutional guidelines. Lung microvascular endothelial cells were isolated from CBA/J mice and characterized as described (Jackson et al., 1990) using magnetic beads (Dynabeads M-450, Dynal, Oslo, Norway), covalently bound to a purified rat-anti-mouse PECAM-1 monoclonal antibody (donated by B. Imhof, University of Geneva). Microvascular lung endothelial cells were resuspended in DMEM containing 2 mM L-glutamine, 100 U/ml penicillin, […], 20% FCS, 40 U/ml heparin and […] endothelial cell growth supplement (Brunschwig Chemie, Basel, Switzerland). For patch clamp experiments, cells were plated onto 35×10 mm easy grip Petri dishes (Beckton Dickinson, Plymouth, UK), pre-coated with 0.2% gelatin (Sigma, Buchs, Switzerland). Resident peritoneal macrophages, isolated in ice cold RPMI containing antibiotics and 10 U/ml Heparin, were left to adhere onto 35×10 mm easy grip Petri dishes for 4 h, after which the non-adherent cells were removed. Cells were grown in RPMI 1640 containing 2 mM L-glutamine, 100 U/ml penicillin, 10 μpg/ml streptomycin and 10% fetal bovine serum (all from Gibco). For patch clamp, the macrophages ware used 24 h after isolation.
Electrophysiology. Cells were pretreated for 30 min with TNF, mutTNF and tip peptides at 37° C. in a buffer consisting of 145 mM NaCl, 3 mM KCl, 2mM CaCl2, 2mM MgCl2, 10 mM D-glucose, and 10mM Hepes, and pH-adjusted with NaOH to required value. Cells were then washed with the same buffer pH-adjusted at 7.3, and experiments were performed using the tight-seal, whole-cell recording technique. Currents were recorded with an Axopatch-200A amplifier (Axon Instrument Inc, Foster City, Calif., USA), low pass-filtered at 1 kHz. Digitalization and off-line analysis was performed using the WCP program (J. Dempster, Strathclyde Electrophysiology Software, Glasgow, UK). Patch pipettes were pulled from borosilicate glass and fire polished to have an open resistance of 3–5 MW with an internal solution containing […], 2 mM MgCl2, 10mM EGTA, 20 mM TEA-Cl, 10 mM D-glucose 10 mM Hepes, pH-adjusted to 7.3 with CsOH. Series resistances were kept under 10 MW. Capacitance and series resistance compensation were applied and set to 70%. All experiments were done at room temperature. Results are given as mean ±SEM, unless otherwise indicated. Analysis of variance was performed on currents and membrane conductance values, with post-hoc Dunn-Bonferroni test for significance of differences observed between two groups. A P value of 0.05 was considered significant.

[2] = system: resident peritoneal macrophages; experiment: Whole-cell patch clamp in resident peritoneal macrophages; format: cell-based, mouse; details: 30 min preincubation, acidic pH
Excerpt: as §1, with “Cells were grown in RPMI 1640 containing 2 mM L-glutamine, 100 U/ml penicillin, 10 μpg/ml streptomycin and 10% fetal bovine serum (all from Gibco). For patch clamp, the macrophages ware used 24 h after isolation.” left out
(§2) Electrophysiology. […] Currents were recorded with an Axopatch-200A amplifier (Axon Instrument Inc, Foster City, Calif., USA), low pass-filtered at 1 kHz. […]

[3] = system: resident peritoneal macrophages from mice deficient in both TNF receptor-1 and -2; experiment: Whole-cell patch clamp in resident peritoneal macrophages of TNFR1/2-deficient mice; format: cell-based, mouse; details: cells lacking TNF receptors
Excerpt: as §1, with “Cells were grown in RPMI 1640 containing 2 mM L-glutamine, 100 U/ml penicillin, 10 μpg/ml streptomycin and 10% fetal bovine serum (all from Gibco). For patch clamp, the macrophages ware used 24 h after isolation.” left out
as §2

[4] = Chloride efflux from SPQ-containing liposomes
Method: Preparation of liposomes. Large unilamellar liposomes were prepared by reverse phase evaporation as previously described (Vecsey-Semjen et al., 1996). Liposomes were prepared of either 100% egg phosphatidylglycerol (EPG) or a mixture of EPC and EPG (1:1 W/W) in a buffer containing 100 mM KCl, 20 mM N-[2-Hydroxyethyl]piperazine-N′-[2-ethane-sulfonic acid] (HEPES), pH 7.4 and 1.5 mg/ml of 6-methoxy-N-(3-sulfopropyl)quinolinium (SPQ).
Choride efflux measurements. All fluorescence experiments were carried out using a PTI spectrofluorometer equipped with a thermostated cell holder (37° C.). The dye was excited at 350 nm and emission was recorded at 422 nm, both excitation and emission band widths were set to 5 nm. Liposomes were diluted to a final concentration of 50 μg/ml in a solution containing 100 mM KNO3 and 20 mM MES pH 6.1 or 20 mM HEPES, pH 7.4. Wild type and mutant TNF were added to a final concentration of 3 μg/ml.

isolated rat lungs = experiment: Isolated lung perfusion experiments (blood perfused, flooded with NaCl); details: after injection of 2 ml NaCl solution; 1 mg/lung
Method: Lungs of female Whistar rats weighing about 300 g were isolated as described in DeCampos et al. (1993). The lungs were injected intratracheally with either 500 μl of sterile […], wild type murine TNF (1 μg/lung) or mTNF tip peptide (Ltip (SEQ ID NO:6), see above; 1 mg/lung). Subsequently, the lungs were perfused with blood isolated from the same rat. Thirty minutes later, the lungs were injected intratracheally with 2 ml of sterile […] solution which leads to a weight increase of about 2 g (FIG. 5). The weight evolution was then followed continuously for 150 min (FIG. 5).

[5] = Quenching of tryptophan fluorescence by brominated lipids; details: acidic pH
Excerpt: In order to investigate whether chloride efflux was due to membrane binding or membrane insertion of TNF, we have analyzed whether brominated lipids were able to quench the intrinsic fluorescence of TNF and mutTNF upon membrane interaction. Brominated lipids have been useful in determining the topology of membrane proteins (Bolon et al., 1990) (Markello et al., 1985) as well as studying the membrane interaction of pore-forming toxins (Gonzalez-Manas et al., 1992) (Van der Goot et al., 1991) (Vecsey-Semjen et al., 1997). TNF contains two tryptophan residues, one at the top of the receptor binding domain and one at the top of the so called tip domain. If the tip of the TNF trimer were to insert into the lipid bilayer, the fluorescence of Trp-113 should be quenched upon insertion into liposomes composed of dioleoylphosphatidylglycerol that had bromines attached at positions 9 and 10 of the acyl chains. We have indeed previously observed that tryptophans located at the boundary between the lipid head groups and the acyl chains were succeptible to bromide quenching.

[6] = compared to wild-type mTNF in vivo; cited from earlier work
[7] = Tryptophan fluorescence (acidic unfolding); format: physicochemical
Method: Tryptophan fluorescence. Fluorescence measurements were made with a PTI spectrofluorimeter. The excitation wavelength was 295 nm and slit widths were 5 nm and 2.5 nm for excitation and emission respectively. For each recorded spectrum, the Raman scatter contribution was removed by subtraction of a buffer blank. All buffers contained 150 mM NaCl, and 20 mM of N-[2-morpholino] ethane-sulfonic acid (MES) buffer at the desired pH. The samples were allowed to incubate for 1 h 30 at the desired pH before measuring the emission spectrum. The wild type and mutant TNF concentrations were 6 μg/ml.

[8] = system: murine model of peritonitis; details: cited from earlier work
trypanosome = details: compared to wild type TNF; cited from earlier work
[9] = 30 min preincubation at acidic pH (pH 6), TNF, mutTNF 100 ng/ml, peptides 100 μg/ml

Row | Molecule | induced increase in conductance in presence of amiloride ([1]; 100 μM amiloride added during pretreatment at pH 6.0) | whole cell current / membrane conductance [1, 9] | whole cell current / membrane conductance ([1]; preincubation at pH 7.3 (neutral pH)) | whole cell current [2] | whole cell current [3] | change in SPQ fluorescence / interaction with membranes ([4]; peptide concentrations up to 300 μg/ml, neutral, acidic or 1:1 lipids) | start of weight loss (isolated rat lungs) | fluorescence quenching by brominated lipids [5] | chloride efflux (SPQ fluorescence) ([4]; 100% EPG liposomes, pH 6.1, 3 μg/ml) | interaction with membranes ([4]; neutral pH) | systemic toxicity [6] | acidic unfolding ([7]; acidification of the medium) | maximum emission of tryptophan fluorescence ([7]; pH 4.6) [nm] | maximum emission of tryptophan fluorescence ([7]; pH 6) [nm] | peritonitis-protective effect [8] | trypanolytic and lectin-like affinity to oligosaccharides (trypanosome)
1 | GG-CGPKDTPEGAELKPWYC (Biotin-GGCGPKDTPEGAELKPWYC; disulfide 3-19; listed as Mus musculus) [LTip] | blocked | increased outward, and inward currents | persisted at neutral pH, although less pronounced | increased outward | also active | unable to interact with membranes | started immediately | – | – | – | – | – | – | – | – | –
2 | B1 | – | completely lacked the conductance activating effect | – | – | – | – | – | unable to see any fluorescence quenching | even more pronounced than that of wild type TNF | did not interact with membranes | significantly reduced systemic toxicity | able to undergo acidic unfolding | 339 | 318 | retains its peritonitis-protective effect | lacks the trypanolytic and lectin-like affinity to oligosaccharides
